Experimental data reported in publication PMC9289529, “Varicella‐Zoster virus ORF9 is an antagonist of the DNA sensor cGAS”.

What was measured:
[1] = biological target: cGAS (pull-down preparation) (human, UniProt Q8N884 1-522); experiment: pull-down; Binding buffers for pull-down, EMSA and phase separation not in the material; phase separation tested at varied NaCl/KCl up to 300 mM or more; conditions: protein: recombinant; tags: GST cleaved by PreScission; label: biotin; blunt
[2] = biological target: T1, ORF9 (FLAG-ORF9) (Varicella-zoster virus, UniProt Q4JQW6 1-302); experiment: pull-down; conditions: protein: recombinant; tags: N-terminal FLAG (GST cleaved by PreScission); label: biotin; blunt
T1 sequence: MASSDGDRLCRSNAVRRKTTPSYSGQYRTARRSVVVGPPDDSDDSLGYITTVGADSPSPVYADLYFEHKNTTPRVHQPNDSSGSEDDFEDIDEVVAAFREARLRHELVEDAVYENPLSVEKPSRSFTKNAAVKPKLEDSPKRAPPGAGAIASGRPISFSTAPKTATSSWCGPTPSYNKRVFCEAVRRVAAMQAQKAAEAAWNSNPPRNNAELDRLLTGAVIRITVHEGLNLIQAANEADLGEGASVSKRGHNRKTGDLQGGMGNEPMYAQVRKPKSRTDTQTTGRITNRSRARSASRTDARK

[3] = biological target: T2, ORF9 (EMSA preparation) (Varicella-zoster virus, UniProt Q4JQW6 1-302); experiment: EMSA (agarose); Binding buffers for pull-down, EMSA and phase separation not in the material; phase separation tested at varied NaCl/KCl up to 300 mM or more; conditions: protein: recombinant; tags: N-terminal FLAG (pET28a, Ni-NTA purified); blunt
T2 sequence: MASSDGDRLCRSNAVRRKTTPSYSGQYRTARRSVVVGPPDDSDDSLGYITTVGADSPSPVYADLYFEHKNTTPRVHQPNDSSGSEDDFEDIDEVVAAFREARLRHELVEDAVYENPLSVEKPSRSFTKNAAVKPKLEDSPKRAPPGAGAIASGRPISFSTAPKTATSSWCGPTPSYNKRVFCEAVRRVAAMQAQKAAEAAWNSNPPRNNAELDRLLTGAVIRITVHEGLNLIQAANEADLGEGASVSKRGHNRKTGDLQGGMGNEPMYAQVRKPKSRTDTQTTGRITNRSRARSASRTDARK

[4] = biological target: hcGAS;ORF9 (EMSA preparation) (human;Varicella-zoster virus, UniProt Q8N884;Q4JQW6 1-522;1-302, |); experiment: EMSA (agarose); increasing ORF9 enlarges cGAS-DNA complexes; Binding buffers for pull-down, EMSA and phase separation not in the material; phase separation tested at varied NaCl/KCl up to 300 mM or more; conditions: protein: recombinant;recombinant; tags: 6xHis-SUMO2 construct (pET);N-terminal FLAG (pET28a, Ni-NTA purified); blunt
Sequence of hcGAS;ORF9 (EMSA preparation) (Q8N884 whole entry, one chain of several): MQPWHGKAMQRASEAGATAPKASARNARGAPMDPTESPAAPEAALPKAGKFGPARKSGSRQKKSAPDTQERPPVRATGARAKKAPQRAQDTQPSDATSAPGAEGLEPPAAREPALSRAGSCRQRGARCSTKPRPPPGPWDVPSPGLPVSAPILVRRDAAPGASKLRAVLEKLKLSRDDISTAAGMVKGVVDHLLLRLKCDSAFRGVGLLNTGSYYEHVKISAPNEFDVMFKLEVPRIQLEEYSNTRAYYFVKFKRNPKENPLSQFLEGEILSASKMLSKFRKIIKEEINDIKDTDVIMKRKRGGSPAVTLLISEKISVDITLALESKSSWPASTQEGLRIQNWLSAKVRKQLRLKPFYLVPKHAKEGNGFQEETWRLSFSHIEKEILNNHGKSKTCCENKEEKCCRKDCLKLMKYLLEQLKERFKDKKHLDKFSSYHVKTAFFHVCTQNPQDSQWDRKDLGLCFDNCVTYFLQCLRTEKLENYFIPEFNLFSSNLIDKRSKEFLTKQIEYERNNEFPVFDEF

[5] = biological target: T3, hcGAS (human, UniProt Q8N884 1-522); experiment: EMSA (agarose); high-molecular-weight complexes; Binding buffers for pull-down, EMSA and phase separation not in the material; phase separation tested at varied NaCl/KCl up to 300 mM or more; conditions: protein: recombinant; tags: 6xHis-SUMO2 construct (pET); blunt
T3 sequence (Q8N884 whole entry): as the sequence (Q8N884 whole entry, one chain of several) above

[6] = biological target: T3, hcGAS; experiment: phase separation microscopy; droplets sensitive to salt >250 mM; none at 300 mM NaCl/KCl; Binding buffers for pull-down, EMSA and phase separation not in the material; phase separation tested at varied NaCl/KCl up to 300 mM or more; conditions: protein: recombinant; tags: 6xHis-SUMO2 construct (pET); blunt
[7] = biological target: T4, ORF9 (phase separation preparation) (Varicella-zoster virus, UniProt Q4JQW6 1-302); experiment: phase separation microscopy; no cGAS; smaller droplets than cGAS-DNA; Binding buffers for pull-down, EMSA and phase separation not in the material; phase separation tested at varied NaCl/KCl up to 300 mM or more; conditions: protein: recombinant; tags: 6xHis-SUMO2 removed by SENP2; blunt
T4 sequence: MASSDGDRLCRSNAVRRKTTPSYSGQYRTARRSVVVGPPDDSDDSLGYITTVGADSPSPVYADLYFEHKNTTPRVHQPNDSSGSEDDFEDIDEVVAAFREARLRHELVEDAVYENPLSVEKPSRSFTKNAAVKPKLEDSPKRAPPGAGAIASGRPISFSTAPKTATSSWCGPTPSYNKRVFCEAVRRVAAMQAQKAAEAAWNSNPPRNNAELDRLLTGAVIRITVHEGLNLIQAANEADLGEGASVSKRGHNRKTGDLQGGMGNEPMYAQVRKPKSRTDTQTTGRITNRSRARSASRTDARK

[8] = biological target: hcGAS;ORF9 (phase separation preparation) (human;Varicella-zoster virus, UniProt Q8N884;Q4JQW6 1-522;1-302, |); experiment: phase separation microscopy; 3-fold molar excess ORF9; larger droplets, also formed at 300 mM NaCl/KCl; Binding buffers for pull-down, EMSA and phase separation not in the material; phase separation tested at varied NaCl/KCl up to 300 mM or more; conditions: protein: recombinant;recombinant; tags: 6xHis-SUMO2 construct (pET);6xHis-SUMO2 removed by SENP2; blunt
Sequence of hcGAS;ORF9 (phase separation preparation) (Q8N884 whole entry, one chain of several): as the sequence (Q8N884 whole entry, one chain of several) above

Sequence of cGAS (pull-down preparation) (Q8N884 whole entry): as the sequence (Q8N884 whole entry, one chain of several) above

B1: VACV-70mer-Biotin (dsDNA)
DNA 1: CCATCAGAAAGAGGTTTAATATTTTTGTGAGACCATCGAAGAGAGAAAGAGATAAAACTTTTTTACGACT
DNA 2: AGTCGTAAAAAAGTTTTATCTCTTTCTCTCTTCGATGGTCTCACAAAAATATTAAACCTCTTTCTGATGG
modifications: 3' TEG-biotin on forward strand
binding result [1]: binds | binding result [2]: binds

B2: VACV70mer dsDNA (dsDNA)
DNA 1: CCATCAGAAAGAGGTTTAATATTTTTGTGAGACCATCGAAGAGAGAAAGAGATAAAACTTTTTTACGACT
DNA 2: AGTCGTAAAAAAGTTTTATCTCTTTCTCTCTTCGATGGTCTCACAAAAATATTAAACCTCTTTCTGATGG
binding result [3]: binds | binding result [4]: binds | binding result [5]: binds

B3: 100 bp ISD (dsDNA)
DNA 1: ACATCTAGTACATGTCTAGTCAGTATCTAGTGATTATCTAGACATACATCTAGTACATGTCTAGTCAGTATCTAGTGATTATCTAGACATGGACTCATCC
DNA 2: GGATGAGTCCATGTCTAGATAATCACTAGATACTGACTAGACATGTACTAGATGTATGTCTAGATAATCACTAGATACTGACTAGACATGTACTAGATGT
binding result [6]: binds | binding result [7]: binds | binding result [8]: binds
